In US20210155670A1 (University of California, published 2021):

Tests used:
[1] = biological target: T1, single-chain MHC-I (beta2 microglobulin-(GGGS)4-HLA-A*02:01 ectodomain-AviTag), TEV-digested (unzippered), … (human); experiment: size exclusion chromatography after TEV cleavage
T1 construct: also called peptide receptive MHC-I complex; unzippered MHC-I

[2] = biological target: single-chain HLA-A*24:02 (beta2 microglobulin-linker-HLA-A*24:02 ectodomain-AviTag), TEV-digested, CHO-derived (human); experiment: co-expression, Strep tag purification, TEV digestion, size exclusion chromatography
[3] = biological target: T2, Whole Z1 construct (B2m, HLA-A*02:01, FOS), leucine-zippered single-chain MHC-I (human); experiment: co-expression in CHO cells, purification by the Strep tag on TAPBPR, SDS PAGE
T2 construct: also called single-chain-Fos; single-chain MHC-I-B2M protein

B1: TAPBPR (luminal domain, C94A), TEV-digested (unzippered) (other)
chain: KPHPAEGQWRAVDVVLDCFLVKDGAHRGALASSEDRARASLVLKQVPVLDDGSLEDFTDFQGGTLAQDDPPIIFEASVDLVQIPQAEALLHADASGKEVTCEISRYFLQMTETTVKTAAWFMANVQVSGGGPSISLVMKTPRVAKNEVLWHPTLNLPLSPQGTVRTAVEFQVMTQTQSLSFLLGSSASLDCGFSMAPGLDLISVEWRLQHKGRGQLVYSWTAGQGQAVRKGATLEPAQLGMARDASLTLPGLTIQDEGTYICQITTSLYRAQQIIQLNIQASPKVRLSLANEALLPTLICDIAGYYPLDVVVTWTREELGGSPAQVSGASFSSLRQSVAGTYSISSSLTAEGSAGATYTCQVTHISLEEPLGASTQVVPPERRLEGAGGSGGGGSGGGASGGGGSENLYFQS
notes: also called un-zippered (TEV cleaved) TAPBPR; chaperone TAPBPR
[1]
  binding result: binds
[2]
  binding result: binds

B2: Whole Z2 construct (TAPBPR, JUN), leucine-zippered TAPBPR with Strep tags (other)
chain: KPHPAEGQWRAVDVVLDCFLVKDGAHRGALASSEDRARASLVLKQVPVLDDGSLEDFTDFQGGTLAQDDPPIIFEASVDLVQIPQAEALLHADASGKEVTCEISRYFLQMTETTVKTAAWFMANVQVSGGGPSISLVMKTPRVAKNEVLWHPTLNLPLSPQGTVRTAVEFQVMTQTQSLSFLLGSSASLDCGFSMAPGLDLISVEWRLQHKGRGQLVYSWTAGQGQAVRKGATLEPAQLGMARDASLTLPGLTIQDEGTYICQITTSLYRAQQIIQLNIQASPKVRLSLANEALLPTLICDIAGYYPLDVVVTWTREELGGSPAQVSGASFSSLRQSVAGTYSISSSLTAEGSAGATYTCQVTHISLEEPLGASTQVVPPERRLEGAGGSGGGGSGGGASGGGGSENLYFQSSGGGGSKVDGGGGGRIARLEEKVKTLKAQNSELASTANMLREQVAQLKQVMNWSHPQFEKGGGSGGGSGGSAWSHPQFEKAA
[3]
  binding result: binds
